Laboratory results from publication PMC10462681.

Assays:
[1] = target: LRP4-HA mutant p.Tyr607Cys (c.1820A > G; LRP4-Mut), expressed in HEK293T cells (human) (UniProt O75096)
[2] = target: LRP4-HA mutant p.Tyr607Cys (c.1820A > G; LRP4-Mut), expressed in HEK293T cells (human) (UniProt O75096); assay: pull-down; LRP4-HA (wild-type or mutated) from transfected HEK293T cells immobilised on beads with anti-HA antibody, incubated with or without recombinant agrin (1 µg/mL); western blot with anti-agrin antibody; N = 3 blots

recombinant rat agrin (neural agrin) (from UniProt P25304 1-1959) (ligand)
MuSK phosphorylation (anti-4G10 blot of immunoprecipitated MuSK-Flag) induced by agrin (0.4 µg/ml; 1, 3 and 6 h) in HEK293T cells expressing MuSK-Flag and mutant LRP4-HA, against wild-type LRP4-HA [1]: 40 % decrease
percent decrease of binding against wild-type LRP4 [2]: 80%
